Drawing on PMC11772769, “Selective cargo and membrane recognition by SNX17 regulates its interaction with Retriever” (EMBO Reports, 2024), this text covers Kd for 1 substance.

The target in the test is Peptide SNX17_(CT-18) (UniProt Q15036). Description: fluorescence polarisation. In general terms: Fluorescence polarisation rises when a labelled molecule tumbles more slowly, as on binding a larger partner.

“VPS26C-VPS35L_(110-598) complex (from UniProt O14972 1-297; Q7Z3J2 110-598)” returned a Kd of 5.3 µM.

In general, Kd refers to a measure of binding affinity in units of concentration.
